The text below walks through data of patent US20250304664A1 (VIB VZW, published 2025).

Substitutions are numbered along the chain they refer to. Names and notes keep the numbering of the source.

To fix the notation:
B1: NbNTCP_91- N27D variant (VHH)
VHH: QVQLVESGGGLVEAGGSLRLSCAASTDLRSYAMAWFRQAPGKEREFVSFINWNYGNTRYADSVKGRFTISRDNAKITVYLQMNSLKPEDTAVYYCAAATIGRLAGIDSTTLYDYWGQGTQVTVSS
notes: Single mutant of Nb91; also called Nb91 N27D
B2: NbNTCP_91- N27E variant (VHH)
VHH: B1 VHH with D27E
notes: Single mutant of Nb91; also called Nb91 N27E
B3: NbNTCP_91-N53D variant (VHH)
VHH: B1 VHH with D27N, N53D
notes: Single mutant of Nb91; also called Nb91 N53D
B4: NbNTCP_91- R29N variant (VHH)
VHH: B1 VHH with D27N, R29N
notes: Single mutant of Nb91; also called Nb91 R29N
B5: NbNTCP_91- R29S variant (VHH)
VHH: B1 VHH with D27N, R29S
notes: Single mutant of Nb91; also called Nb91 R29S
B6: NbNTCP_91- N27Q variant (VHH)
VHH: B1 VHH with D27Q
notes: Single mutant of Nb91; also called Nb91 N27Q
B7: NbNTCP_91- L103N variant (VHH)
VHH: B1 VHH with D27N, L103N
notes: Single mutant of Nb91; also called Nb91 L103N
B8: NbNTCP_91- R29G variant (VHH)
VHH: B1 VHH with D27N, R29G
notes: Single mutant of Nb91; also called Nb91 R29G; NbNTOP_91- R29G variant
B9: NbNTCP_87 (VHH)
VHH: QVQLVESGGGLVQAGGSLRLSCAVSGRTTANYNMGWFRQAPGKEREFVAGIKWSSGSTYVADSAKGRFTISRDNAKNSVYLQMDSLKPEDTALYYCAANYYGVSWFLISPSSYDYWGQGTQVTVSS
notes: Family 21; expressed in E. coli periplasm; also called Nb87
B10: NbNTCP_87 - S55Q variant (VHH)
VHH: B9 VHH with S55Q
notes: Single mutant of Nb87; also called Nb87 S55Q
B11: NbNTCP_87 - S111R variant (VHH)
VHH: B9 VHH with S111R
notes: Single mutant of Nb87; also called Nb87 S111R
B12: NbNTCP_87 -A30Q variant (VHH)
VHH: B9 VHH with A30Q
notes: Single mutant of Nb87; also called Nb87 A30Q
B13: NbNTCP_87 - S55E variant (VHH)
VHH: B9 VHH with S55E
notes: Single mutant of Nb87; also called Nb87 S55E

T3 sequence (P43003 whole entry): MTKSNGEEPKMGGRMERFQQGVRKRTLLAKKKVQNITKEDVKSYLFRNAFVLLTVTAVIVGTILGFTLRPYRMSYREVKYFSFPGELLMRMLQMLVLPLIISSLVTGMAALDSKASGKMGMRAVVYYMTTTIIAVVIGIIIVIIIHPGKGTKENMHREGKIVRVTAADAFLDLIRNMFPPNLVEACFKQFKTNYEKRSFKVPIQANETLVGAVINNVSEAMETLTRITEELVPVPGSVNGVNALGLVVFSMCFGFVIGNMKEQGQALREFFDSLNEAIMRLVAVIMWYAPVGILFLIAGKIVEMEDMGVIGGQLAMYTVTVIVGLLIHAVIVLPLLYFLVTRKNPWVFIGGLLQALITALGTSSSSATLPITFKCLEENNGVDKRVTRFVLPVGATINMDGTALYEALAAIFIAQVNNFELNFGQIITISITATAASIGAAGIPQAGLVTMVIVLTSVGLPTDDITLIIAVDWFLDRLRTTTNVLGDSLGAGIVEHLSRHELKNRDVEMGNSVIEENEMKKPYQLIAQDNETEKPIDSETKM

One assay deals with T1, N-glycosylation knocked-out NTCP (NTCPWT_KOG) (human, UniProt Q14973 1-349).
T1 chain: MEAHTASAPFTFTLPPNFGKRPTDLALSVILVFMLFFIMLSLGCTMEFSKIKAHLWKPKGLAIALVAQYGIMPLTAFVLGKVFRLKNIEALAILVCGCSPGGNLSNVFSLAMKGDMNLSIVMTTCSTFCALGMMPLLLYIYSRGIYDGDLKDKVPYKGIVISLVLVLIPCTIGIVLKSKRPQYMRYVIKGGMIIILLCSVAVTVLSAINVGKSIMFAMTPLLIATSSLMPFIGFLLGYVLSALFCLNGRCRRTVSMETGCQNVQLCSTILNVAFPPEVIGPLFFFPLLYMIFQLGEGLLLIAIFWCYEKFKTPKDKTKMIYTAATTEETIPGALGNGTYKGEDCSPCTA
The assay is described as follows: competition with Nb91, substrate uptake read-out in HEK293 cells expressing NTCPWT-KOG, Nbs at 10 µM.
Consider B1, for which the binding result is given as “binds”.
For the molecule B2, the binding result is “binds”.
On the same count and under the same terms, with B3 the entry was “binds”.
With B4, the binding result is “binds”.
As to B5, the binding result is “binds”.
On the same count and under the same terms, with B6 the entry was “binds”.
The same measure, in the same setting: in the case of B7 it was “binds”; in that of B8, “binds”.

A further assay deals with T2, NTCP consensus-mutant construct used for cryo-electron microscopy structure determination (NTCPEM) (human (consensus design), UniProt Q14973 2-328).
T2 chain: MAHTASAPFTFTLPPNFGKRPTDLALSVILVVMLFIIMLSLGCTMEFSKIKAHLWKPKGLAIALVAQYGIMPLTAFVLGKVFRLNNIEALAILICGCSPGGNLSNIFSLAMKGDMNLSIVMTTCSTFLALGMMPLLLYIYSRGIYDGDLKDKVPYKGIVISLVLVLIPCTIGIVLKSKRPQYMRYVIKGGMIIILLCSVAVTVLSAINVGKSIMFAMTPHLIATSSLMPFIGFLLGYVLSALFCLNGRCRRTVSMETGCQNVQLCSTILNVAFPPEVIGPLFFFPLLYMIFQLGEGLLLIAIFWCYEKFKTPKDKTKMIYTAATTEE
The assay is described as follows: cell-based or functional assay.
As for B9, the “half-maximal inhibitory concentrations (IC50) of Na+-induced fluorescent-substrate uptake by cells expressing NTCPEM” value was roughly 180 nM.

The next assay has as its target T3, excitatory amino acid transporter, EAAT1 (UniProt P43003 1-542, limits assumed).
T3 construct: whole, on cells; Negative control expressed on HEK293T cells; also called unrelated neurotransmitter transporter
The assay can be described thus: cell surface labelling of transfected HEK293T cells, Nb87 as primary Nb and (AntiC)2-mCherryXL as secondary Nb, fluorescence microscopy.
Method: (§1) Adherent HEK293T cells were seeded at 0.3×10⁶/mL using 500 μl per well in a 24-well plate and incubated for 2 days. 5 μg of cDNA coding for NTCP, or control neurotransmitter (EAAT1) was transfected as follows: (1) 5 μg DNA was mixed with 50 μl Opti-MEM and incubated for 5 min; (2)² μl lipofeactamine was mixed with 50 μl of Opti-MEM and incubated for 5 min: (3) DNA and lipofectamine solutions were mixed in 1:1 ratio and incubated for 20 min. 100 μl of the mixture was added to each well. After incubation for 6-8 h the medium was changed to DMEM medium, and incubated for 2 days post transfection. […] Excess of primary unlabeled Nb was removed and 10 μM of the secondary labelled Nb ((AntiC)2-mCherryXL) was added following a 1 h incubation. Cells were washed once with fresh medium prior to detection of fluorescence on an inverted microscope.
Turning to B9, the binding result is given as “no binding (tested: 20 µM Nb87)”.

The next assay has as its target T1, N-glycosylation knocked-out NTCP …. The assay can be described thus: competition with Nb87, substrate uptake read-out in HEK293 cells expressing NTCPWT-KOG, Nbs at 2 µM.
For B10, the binding result is on record as “binds”.
As for B11, the binding result is “binds”.
On the same count and under the same terms, with B12 the entry was “binds”.
On the same count and under the same terms, in the case of B13 it was “binds”.

A further assay addresses T4, human wild type Sodium taurocholate co-transporting polypeptide (NTCPWT) (human, UniProt Q14973 1-349).
T4 construct: Transiently expressed in HEK293 cells; also called SLC10A1; human wildtype NTCP
T4 sequence: T1 chain with T5N, T11N
The assay can be described thus: cell surface labelling, 20 µM Nb87 and 10 µM (AntiC)2-mCherryXL, fluorescence microscopy.
Method: as §1
With B9, the binding result is given as “binds”.
